The data set deals with the molecule itself. The data set can be described thus: AUC.

What is called stoichiometry N is the number of molecules, sites or subunits per partner or assembly.

B1: TBC1D4 CTR (TBC1D4 1192-1299) with His6-tag (domain or fragment, human, UniProt O60343 1192-1298, looked up)
chain: SCEDSETLEKLERANSQLKRQNMDLLEKLQVAHTKIQALESNLENLLTRETKMKSLIRTLEQEKMAYQKTVEQLRKLLPADALVNCDLLLRDLNCNPNNKAKIGNKP
Take B1: the “stoichiometry N” value stood at 2.

B2: TBC1D4 RabGAP-CTR1 (TBC1D4 865-1299) with His6-tag (domain or fragment, human, UniProt O60343 865-1298, looked up)
chain: ASRDELQSRKVKLDYEEVGACQKEVLITWDKKLLNCRAKIRCDMEDIHTLLKEGVPKSRRGEIWQFLALQYRLRHRLPNKQQPPDISYKELLKQLTAQQHAILVDLGRTFPTHPYFSVQLGPGQLSLFNLLKAYSLLDKEVGYCQGISFVAGVLLLHMSEEQAFEMLKFLMYDLGFRKQYRPDMMSLQIQMYQLSRLLHDYHRDLYNHLEENEISPSLYAAPWFLTLFASQFSLGFVARVFDIIFLQGTEVIFKVALSLLSSQETLIMECESFENIVEFLKNTLPDMNTSEMEKIITQVFEMDISKQLHAYEVEYHVLQDELQESSYSCEDSETLEKLERANSQLKRQNMDLLEKLQVAHTKIQALESNLENLLTRETKMKSLIRTLEQEKMAYQKTVEQLRKLLPADALVNCDLLLRDLNCNPNNKAKIGNKP
On to B2, for which the “stoichiometry N” value was determined as 2.

Source of the values: PMC5548637 (International journal of biological macromolecules, 2017).
